The values below are quoted from earlier work in article PMC3209554.

The target in the series is ClpX N domain (Escherichia coli) (UniProt P0A6H1).
UniProt P0A6H1, sequence (P0A6H1 2-56): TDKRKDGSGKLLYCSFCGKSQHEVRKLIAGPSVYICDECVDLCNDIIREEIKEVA

With “SspB C-terminal tail (from UniProt P0AFZ3)”, the Kd is 20 µM.
